These sequences were tested on Escherichia coli TOP10 (assay: shrunken log2 fold change of peptide-encoding DNA abundance (4.5 h post-induction vs induction); higher = less antimicrobial activity (less host growth inhibition)). Conditions: time post-induction: 4.5 h; library: site-saturation at positions 5, 18, 19, 20.
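Note: peptides expressed intracellularly from a pBAD plasmid library in pooled LB shake-flask culture, induced with 0.3% L-arabinose, DNA abundance read by NGS, three biological replicates, DESeq2 with apeglm shrinkage.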

| Sequence | shrunken log2 fold change |
| --- | --- |
| RRIRRRPPRLPRPRPRPVLWPRP | 0.886 |
| RRIRNRPPRLPRPRPRPIEDPRP | -0.0858 |
| RRIRWRPPRLPRPRPRPTLWPRP | 0.611 |
| RRIRARPPRLPRPRPRPSNDPRP | -0.213 |
| RRIRPRPPRLPRPRPRPYVSPRP | 0.00613 |
| RRIRNRPPRLPRPRPRPSNGPRP | -0.12 |
| RRIRARPPRLPRPRPRPVKEPRP | -0.0493 |
| RRIRYRPPRLPRPRPRPADKPRP | -0.419 |
| RRIRERPPRLPRPRPRPPIAPRP | 0.13 |
| RRIRNRPPRLPRPRPRPFTIPRP | -0.28 |
| RRIRKRPPRLPRPRPRPTYSPRP | -0.191 |
| RRIRNRPPRLPRPRPRPHQVPRP | 0.0294 |
| RRIRNRPPRLPRPRPRPYAYPRP | -0.533 |
| RRIRCRPPRLPRPRPRPYVAPRP | -0.858 |
| RRIRKRPPRLPRPRPRPEQKPRP | 0.125 |
| RRIRTRPPRLPRPRPRPFPNPRP | -0.105 |
| RRIRSRPPRLPRPRPRPAIKPRP | -0.352 |
| RRIRIRPPRLPRPRPRPRNCPRP | -0.271 |
| RRIRMRPPRLPRPRPRPKSTPRP | 1.44 |
| RRIRARPPRLPRPRPRPCVLPRP | -0.0267 |
| RRIRVRPPRLPRPRPRPFYAPRP | -0.357 |
| RRIRWRPPRLPRPRPRPMKEPRP | -0.23 |
| RRIRVRPPRLPRPRPRPYQIPRP | 0.043 |
| RRIRYRPPRLPRPRPRPTRMPRP | 0.09 |
| RRIRNRPPRLPRPRPRPLMQPRP | -0.0301 |

| Sequence | shrunken log2 fold change |
| --- | --- |
| RRIRERPPRLPRPRPRPTVSPRP | -0.137 |
| RRIRERPPRLPRPRPRPQFAPRP | -0.148 |
| RRIRERPPRLPRPRPRPPSLPRP | -0.0799 |
| RRIRIRPPRLPRPRPRPNLEPRP | -0.114 |
| RRIRIRPPRLPRPRPRPVRPPRP | 0.664 |
| RRIRLRPPRLPRPRPRPHASPRP | -0.046 |
| RRIRPRPPRLPRPRPRPENYPRP | -0.283 |
| RRIRDRPPRLPRPRPRPCFWPRP | 0.612 |
| RRIRRRPPRLPRPRPRPTETPRP | 0.137 |
| RRIRARPPRLPRPRPRPYDIPRP | 0.00126 |
| RRIRERPPRLPRPRPRPKGYPRP | 0.016 |
| RRIRRRPPRLPRPRPRPDRVPRP | -0.203 |
| RRIRQRPPRLPRPRPRPHKEPRP | 0.114 |
| RRIRIRPPRLPRPRPRPVKSPRP | -0.0366 |
| RRIRTRPPRLPRPRPRPETHPRP | 0.179 |
| RRIRQRPPRLPRPRPRPHWWPRP | 0.38 |
| RRIRIRPPRLPRPRPRPREAPRP | 0.0165 |
| RRIRRRPPRLPRPRPRPAIPPRP | -0.0158 |
| RRIRLRPPRLPRPRPRPTFMPRP | -0.305 |
| RRIRIRPPRLPRPRPRPTENPRP | 0.0227 |
| RRIRNRPPRLPRPRPRPHVWPRP | 0.0415 |
| RRIRERPPRLPRPRPRPGFSPRP | -0.196 |
| RRIRLRPPRLPRPRPRPYDDPRP | -0.167 |
| RRIRHRPPRLPRPRPRPTLIPRP | 0.0888 |
| RRIRFRPPRLPRPRPRPHPYPRP | 0.0415 |

| Sequence | shrunken log2 fold change |
| --- | --- |
| RRIRFRPPRLPRPRPRPKAVPRP | -0.00146 |
| RRIRKRPPRLPRPRPRPFGSPRP | -0.00822 |
| RRIRVRPPRLPRPRPRPQVPPRP | -0.205 |
| RRIRGRPPRLPRPRPRPEWFPRP | 0.683 |
| RRIRHRPPRLPRPRPRPHIMPRP | -0.63 |
| RRIRWRPPRLPRPRPRPPWLPRP | 0.526 |
| RRIRYRPPRLPRPRPRPYDGPRP | -0.155 |
| RRIRYRPPRLPRPRPRPINAPRP | -0.469 |
| RRIRPRPPRLPRPRPRPVRIPRP | 0.0103 |
| RRIRPRPPRLPRPRPRPQYAPRP | -0.103 |
| RRIRERPPRLPRPRPRPFIMPRP | -0.0895 |
| RRIRFRPPRLPRPRPRPWSRPRP | -0.147 |
| RRIRKRPPRLPRPRPRPYWFPRP | 0.00102 |
| RRIRNRPPRLPRPRPRPKIPPRP | -0.255 |
| RRIRWRPPRLPRPRPRPTMNPRP | -0.225 |
| RRIRFRPPRLPRPRPRPIMFPRP | -0.0164 |
| RRIRFRPPRLPRPRPRPPWFPRP | 0.033 |
| RRIRKRPPRLPRPRPRPNQIPRP | 0.105 |
| RRIRTRPPRLPRPRPRPLMQPRP | 0.19 |
| RRIRFRPPRLPRPRPRPKLEPRP | -0.0492 |
| RRIRQRPPRLPRPRPRPRGQPRP | 0.726 |
| RRIRQRPPRLPRPRPRPHQHPRP | -0.309 |
| RRIRLRPPRLPRPRPRPQIVPRP | -0.0529 |
| RRIRKRPPRLPRPRPRPIYRPRP | -0.0881 |
| RRIRVRPPRLPRPRPRPKGIPRP | -0.115 |
